Biological target: SARS-CoV-2 Nsp15 catalytically inactive mutant H234A (SARS-CoV-2)
Test: cryo-EM structure

Substance: SARS-CoV-2 Nsp15 catalytically inactive mutant H234A (enzyme)
- stoichiometry N: 6

Reference: paper PMC10690159
